Test results published in patent US20250296984A1, “THERAPEUTIC AND DIAGNOSTIC AGENTS AND USES THEREOF” (priority 2022, published 2025).
Marks after values point to notes of the source that are not given here.

Columns and labels:
[1] = tested on: control CHO cells (US28 negative); test: FACS binding to US28 negative control CHO cells; parameters: species or system Chinese hamster
Method: (§1) Flowcytometry was used to analyze cell surface binding by the US28 antibodies. Upon cell harvest, adherent non-infected and US28 overexpressing or HCMV infected cells were washed three times with cell staining buffer (phosphate-buffered saline (PBS (Amresco, Cleveland, 44139, USA) added 0.5% BSA and 0.05% Sodium Azide (NaN3)). The cells were trypisinized and then resuspended in DMEM with 10% FBS to inhibit the action of trypsin. The cells were then pelleted at 400×g for 10 minutes and washed three times in cell staining buffer. Cell viability and cell concentration were measured by tryphan blue viability assay and a cell counter (Countess, Invitrogen, Carlsbad, CA 92008, USA). The cell suspension was adjusted to 1×10^6 cells/mL with ice-cold cell staining buffer. The cells were blocked in 1 ml 10% FBS or 1% BSA in PBS per 1×10^6 cells, vortexed briefly, and incubated for 10-30 minutes to eliminate non-specific staining. The cells were then stained with the respective antibodies and appropriate negative controls.
(§2) In both cases (ECD1 and ECD3), the antibodies were added to the cells, vortexed and incubated on ice for 15 to 30 minutes up to overnight and washed twice with cell staining buffer to remove any unbound antibodies. In addition, the CMV Immediate Early Antigen (IE) Alexa488 Ab, MAB810X, 1:50 was included to verify HCMV infected cells in one of the experiments. Because it binds to an intracellular, HCMV encoded protein, it was added after permeabilizing the cells in 70% ethanol for 30 min on ice.
(§3) 1:500-1:5000 in cell staining buffer of the appropriate fluorescent-conjugated appropriate secondary antibodies were added and incubated on ice for 15-20 min in the dark. The cells were washed three times to remove any unbound antibodies. The cells were then fixed with 0.5% paraformaldehyde (PFA) for 30 min on ice and resuspended in 200-500 μL cell staining buffer for final flow cytometric analysis using an Accuri C6 flow cytometry system (BD Biosciences, San Jose, CA 95131, USA). Data analyses were performed using FlowJo software v8.8 (Treestar Inc. Ashland, OR 97520, USA).
(§4) Background levels were determined using the respective secondary antibodies (anti-mFc-FITC for the subclones, or anti-myc-PE for the VUN100 molecules) with CHO cells and CHO-US28 cells. Given that US28 is expressed on the cell surface, the cells were non-permeabilised for these experiments.

[2] = molecular target: T1, HCMV US28 (strain DB) on CHO-US28-A1 cells (Human cytomegalovirus, UniProt P69332, D170N/D19A); test: FACS surface binding to CHO-US28-A1 cells
T1 construct: expressed in transfected cells; host or cells: CHO-K1 (vector pCDH-EF1a-MCS)
Method: Plasmid construction was performed to create a US28-overexpressing cell line. The US28 sequence, identical to HCMV DB strain (Acc. Number: KT959235; SEQ ID No. 5 of this application), fused to a 6His tag at its C terminal part, was inserted into the pCDH-EF1a-MCS vector (Creative Biolabs, Shirley, NY 11967, USA). The plasmid construct was transfected to CHO-K1 cell line. The cells were collected 48 hours after transfection. The cell line was named as CHO-US28-A1-6His and its protein sequence (SEQ ID NO: 47) is the following:
as §1
The primary antibodies used were I) 13-5G6-1D3 (50 μg/ml) as a positive control; II) Monovalent and Bivalent VUN100 ScFvs 1:1 (50 μg/ml); III) test antibodies for the specified subclones (1:5).
The primary antibodies used were I) 13-5G6-1D3 1:50 to 50 μg/ml; and II) Commercial US28 polyclonal antibody (50 μg/ml), III) Monovalent and Bivalent VUN100 ScFvs (50 μg/ml) and for certain experiments, the appropriate isotype controls were included.
as §2, §3, §4

B1: 7B1F3: mouse IgG1 kappa antibody against US28 ECD1 Peptide-N; VH SEQ ID NO: 211, VL SEQ ID NO: 213 (antibody, V domains shown)
VH: EVQLQQSGAELAKPGASVKMSCKASGYTFTNYWMHWVKQRPGQGLEWIGYVNPRTGYTEYNQKFKDKATLTADKSSRTAYMQLSSLTSEDSAVYSCARILNGTGFAYWGQGTLVTVSA
VL: DIVLTQSPSSLTVSVGEKFTMSCKSSQSLLYSSNQKNYLAWYQQKPGQSPKLLIYWASTRESGVPDRFTGSGSGTDFTLAISSVKPEDLAIYYCQQYYSFPLTFGAGTKLEIK
modifications: Mature form of VH sequence of 7B1F3, without the leader sequence; Mature form of VL sequence of 7B1F3, without the leader sequence
- Percentage of binding to CHO cells ([1]; Table 7B, (1:5), secondary antibody background removed): 0.67%

B2: 13-5G6-1D3 rAb: recombinant antibody product of US28-13-5G6-1D3 produced in HEK293-F cells (antibody)
heavy: EVKLVESGGGLVQPGGSLRLACATSGFTFTDYYMSWVRQPPGKALEWLGFIRSKANGYTTEYSASVKGRFTISRDNSQSILYLQMNTLRSEDSATYYCARDERRTAWLAYWGQGTLVTVSAAKTTPPSVYPLAPGSAAQTNSMVTLGCLVKGYFPEPVTVTWNSGSLSSGVHTFPAVLQSDLYTLSSSVTVPSSTWPSETVTCNVAHPASSTKVDKKIVPRDCGCKPCICTVPEVSSVFIFPPKPKDVLTITLTPKVTCVVVDISKDDPEVQFSWFVDDVEVHTAQTQPREEQFNSTFRSVSELPIMHQDWLNGKEFKCRVNSAAFPAPIEKTISKTKGRPKAPQVYTIPPPKEQMAKDKVSLTCMITDFFPEDITVEWQWNGQPAENYKNTQPIMDTDGSYFIYSKLNVQKSNWEAGNTFTCSVLHEGLHNHHTEKSLSHSPGK
light: DVLMTQTPLSLPVSLGDQASISCRSSQSIVHSNGNTYLDWYLQKPGQSPKLLIYKVSNRFSGVPDRFSGSGSGTDFTLKISRVEAEDLGVYYCFQGSHVPTWTFGGGTKLEIKRADAAPTVSIFPPSSEQLTSGGASVVCFLNNFYPKDINVKWKIDGSERQNGVLNSWTDQDSKDSTYSMSSTLTLTKDEYERHNSYTCEATHKTSTSPIVKSFNRNEC
- Binding Specificity (ratio of surface binding) ([2]; CHO-US28-A1 cells compared with US28 negative control CHO cells): 21.5*
- higher surface binding to US28 expressing CHO cells than control CHO cells ([2]; FIG. 7): > 21 times
- control CHO cells bound ([1]; 1:10 dilution (w/v), blank and secondary Ab controls removed, FIG. 7): 0.77%

B3: US28-13-5G6-1D3: monoclonal antibody against ECD3 of HCMV US28; VH SEQ ID NO: 12, VL SEQ ID NO: 18; rAb is the recombinant product (antibody, V domains shown)
VH: EVKLVESGGGLVQPGGSLRLACATSGFTFTDYYMSWVRQPPGKALEWLGFIRSKANGYTTEYSASVKGRFTISRDNSQSILYLQMNTLRSEDSATYYCARDERRTAWLAYWGQGTLVTVSA
VL: DVLMTQTPLSLPVSLGDQASISCRSSQSIVHSNGNTYLDWYLQKPGQSPKLLIYKVSNRFSGVPDRFSGSGSGTDFTLKISRVEAEDLGVYYCFQGSHVPTWTFGGGTKLEIK
modifications: Mature form of VH sequence of 1D3, without the leader sequence; Mature form of VL sequence of 1D3, without the leader sequence
notes: monoclonal antibody against ECD3 of HCMV US28; rAb is the recombinant product
- binding to CHO-US28-A1 cells relative to any of the other 9 clones ([2]; 1:50 w/v Ab dilution): 8-10 fold
- CHO-US28-A1 cells bound/stained ([2]; comparison with commercial US28 Ab, FIG. 11A): more than 50%

B4: 13-5G6-1D3: mouse monoclonal IgG1 kappa antibody against US28 ECD3; VH SEQ ID NO: 12, VL SEQ ID NO: 18 (antibody, V domains shown)
VH: B3 VH
VL: B3 VL
modifications: Mature form of VH sequence of 1D3, without the leader sequence; Mature form of VL sequence of 1D3, without the leader sequence
- background binding, % of CHO negative control population ([1]; FIG. 21A): 0.88%
